In PMC6177252, “Transcription factors Rv0081 and Rv3334 connect the early and the enduring hypoxic response of Mycobacterium tuberculosis”:

B1: FAM-Fragment 1 (dsDNA)
DNA 1: CACATGTACCCAGTGTTAACCTTCTAGTGCACTAGAAGGTCAAGGGGAGTCGC
DNA 2: GCGACTCCCCTTGACCTTCTAGTGCACTAGAAGGTTAACACTGGGTACATGTG
B2: FAM-Fragment 3 (dsDNA)
DNA 1: TGTCGATGGTTGTTCTCATCTGGTAACTCCTTTCCGCAGGCCGCAATTCAGCG
DNA 2: CGCTGAATTGCGGCCTGCGGAAAGGAGTTACCAGATGAGAACAACCATCGACA
B3: Fragment 6 (-73 to -40) (dsDNA)
DNA 1: CGCCCGCACTGCTGGCGGCTCACATGTACCCAGT
DNA 2: ACTGGGTACATGTGAGCCGCCAGCAGTGCGGGCG
B4: Fragment 5 (-40 to -10) (dsDNA)
DNA 1: GTTAACCTTCTAGTGCACTAGAAGGTCAAG
DNA 2: CTTGACCTTCTAGTGCACTAGAAGGTTAAC
B5: Fragment 1 (-53 to 0) (dsDNA)
DNA 1: CACATGTACCCAGTGTTAACCTTCTAGTGCACTAGAAGGTCAAGGGGAGTCGC
DNA 2: GCGACTCCCCTTGACCTTCTAGTGCACTAGAAGGTTAACACTGGGTACATGTG
B6: Fragment 4 (-203 to -154) (dsDNA)
DNA 1: GGATGGTCATAGTGGCGTCGGGCGCCAGGCCTGCGCGGGCACACGCGGTGCGG
DNA 2: CCGCACCGCGTGTGCCCGCGCAGGCCTGGCGCCCGACGCCACTATGACCATCC
B7: Fragment b (-54 to -17) (dsDNA)
DNA 1: CACATGTACCCAGTGTTAACCTTCTAGTGCACTAGAAG
DNA 2: CTTCTAGTGCACTAGAAGGTTAACACTGGGTACATGTG
B8: Fragment 3 (-153 to -104) (dsDNA)
DNA 1: TGTCGATGGTTGTTCTCATCTGGTAACTCCTTTCCGCAGGCCGCAATTCAGCG
DNA 2: CGCTGAATTGCGGCCTGCGGAAAGGAGTTACCAGATGAGAACAACCATCGACA
B9: Fragment 2 (-103 to -54) (dsDNA)
DNA 1: GTATGGGCTCACCGAGATCAGGCTCGTCACGATCGCCCGCACTGCTGGCGGCT
DNA 2: AGCCGCCAGCAGTGCGGGCGATCGTGACGAGCCTGATCTCGGTGAGCCCATAC
B10: Fragment a (-54 to -25) (dsDNA)
DNA 1: CACATGTACCCAGTGTTAACCTTCTAGTGC
DNA 2: GCACTAGAAGGTTAACACTGGGTACATGTG
B11: Fragment c (-54 to -9) (dsDNA)
DNA 1: CACATGTACCCAGTGTTAACCTTCTAGTGCACTAGAAGGTCAAGGG
DNA 2: CCCTTGACCTTCTAGTGCACTAGAAGGTTAACACTGGGTACATGTG

biological target: T1, Rv0081 (Mycobacterium tuberculosis H37Rv, UniProt P9WMI7 1-114); assay: EMSA; conditions: protein: recombinant; tags: His-tag (pET28b); chain copies: 2; label: FAM; blunt
T1 sequence: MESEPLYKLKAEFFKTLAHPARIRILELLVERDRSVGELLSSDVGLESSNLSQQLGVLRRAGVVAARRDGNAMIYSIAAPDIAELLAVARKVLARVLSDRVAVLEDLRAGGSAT

Question: Does B1 bind?
Answer: Result: binds

Question: Does B2 bind?
Answer: Result: binds

biological target: T1, Rv0081; assay: EMSA; 288-576 ng Rv0081; conditions: protein: recombinant; tags: His-tag (pET28b); chain copies: 2; blunt

Question: Does B3 bind?
Answer: Result: no binding

Question: Does B4 bind?
Answer: Result: no binding

biological target: T1, Rv0081; assay: EMSA; 576 ng Rv0081; conditions: protein: recombinant; tags: His-tag (pET28b); chain copies: 2; blunt

Question: Does B5 bind?
Answer: Result: binds

Question: Does B6 bind?
Answer: Result: no binding

Question: Does B7 bind?
Answer: Result: no binding

Question: Does B8 bind?
Answer: Result: binds

Question: Does B9 bind?
Answer: Result: no binding

Question: Does B10 bind?
Answer: Result: no binding

Question: Does B11 bind?
Answer: Result: no binding
